Assay results published in patent US20150344570A1 (published 2015).

T1: FcγRIIb extracellular domain with C-terminal His tag (human, UniProt P31994 43-217)
T1 construct: extracellular domain; also called 2b; FcgRIIb; not shown: His tag at the C terminus
T1 sequence (looked up): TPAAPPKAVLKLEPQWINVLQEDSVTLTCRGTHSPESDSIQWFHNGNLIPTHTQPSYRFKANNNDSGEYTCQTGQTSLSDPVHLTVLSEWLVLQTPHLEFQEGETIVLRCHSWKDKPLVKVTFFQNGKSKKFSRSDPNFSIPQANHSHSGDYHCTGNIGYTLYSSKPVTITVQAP

T2: FcγRIIb extracellular domain with C-terminal His tag (human, UniProt P31994 43-217)
T2 construct: extracellular domain; also called FcgRIIb; 2b; not shown: His tag attached to the C terminus
T2 sequence (looked up): T1 sequence (looked up)

B1: GpH7-A5/GpH7-B3 variant G237_04F/GpL16-k0 (antibody, human IgG1, kappa)
heavy 1: not shown
heavy 2: not shown
light: DIVMTQSPLSLPVTPGEPASISCQASESLVHSNRNTYLHWYLQKPGQSPQLLIYKVSNRFSGVPDRFSGSGSGTDFTLKISRVEAEDVGVYYCSQNTHVPPTFGQGTKVEIERTVAAPSVFIFPPSDEQLKSGTASVVCLLNNFYPREAKVQWKVDNALQSGNSQESVTEQDSKDSTYSLSSTLTLSKADYEKHKVYACEVTHQGLSSPVTKSFNRGEC
notes: IgG1, anti-glypican-3; also called He Ab
B2: GpH7-A5/GpH7-B3 variant P331_03V/GpL16-k0 (He Ab) (antibody, human IgG1, kappa)
heavy 1: not shown
heavy 2: not shown
light: B1 light
notes: Heterodimerized antibody with the alteration in one H chain only
B3: GpH7-A5/GpH7-B3 variant G237_06M/GpL16-k0 (antibody, human IgG1, kappa)
heavy 1: not shown
heavy 2: not shown
light: B1 light
notes: as for B1
B4: GpH7-A5/GpH7-B3 variant G237_20W/GpL16-k0 (antibody, human IgG1, kappa)
heavy 1: not shown
heavy 2: not shown
light: B1 light
notes: as for B1
B5: GpH7-A5/GpH7-B3 variant G237_16H/GpL16-k0 (antibody, human IgG1, kappa)
heavy 1: not shown
heavy 2: not shown
light: B1 light
notes: as for B1
B6: GpH7-A5/GpH7-B3 variant L328_16H/GpL16-k0 (He Ab) (antibody, human IgG1, kappa)
heavy 1: not shown
heavy 2: not shown
light: B1 light
notes: as for B2
B7: GpH7-A5/GpH7-B3 variant G237_05P/GpL16-k0 (antibody, human IgG1, kappa)
heavy 1: not shown
heavy 2: not shown
light: B1 light
notes: as for B1
B8: GpH7-A5/GpH7-B3 variant G237_08L/GpL16-k0 (antibody, human IgG1, kappa)
heavy 1: not shown
heavy 2: not shown
light: B1 light
notes: as for B1
B9: GpH7-A5/GpH7-B3 variant L235_04F/GpL16-k0 (antibody, human IgG1, kappa)
heavy 1: not shown
heavy 2: not shown
light: B1 light
notes: as for B1
B10: GpH7-A5/GpH7-B3 variant L328_18N/GpL16-k0 (He Ab) (antibody, human IgG1, kappa)
heavy 1: not shown
heavy 2: not shown
light: B1 light
notes: as for B2
B11: GpH7-A5/GpH7-B3 variant L328_15Y/GpL16-k0 (He Ab) (antibody, human IgG1, kappa)
heavy 1: not shown
heavy 2: not shown
light: B1 light
notes: as for B2
B12: GpH7-A5/GpH7-B3 variant G237_19Q/GpL16-k0 (antibody, human IgG1, kappa)
heavy 1: not shown
heavy 2: not shown
light: B1 light
notes: as for B1
B13: GpH7-A5/GpH7-B3 variant L235_16H/GpL16-k0 (antibody, human IgG1, kappa)
heavy 1: not shown
heavy 2: not shown
light: B1 light
notes: as for B1
B14: GpH7-A5/GpH7-B3 variant P238_01G/GpL16-k0 (antibody, human IgG1, kappa)
heavy 1: not shown
heavy 2: not shown
light: B1 light
notes: as for B1
B15: GpH7-A5/GpH7-B3 variant L235_15Y/GpL16-k0 (antibody, human IgG1, kappa)
heavy 1: not shown
heavy 2: not shown
light: B1 light
notes: as for B1
B16: GpH7-A5/GpH7-B3 variant L328_14T/GpL16-k0 (He Ab) (antibody, human IgG1, kappa)
heavy 1: not shown
heavy 2: not shown
light: B1 light
notes: as for B2
B17: GpH7-A5/GpH7-B3 variant P331_14T/GpL16-k0 (He Ab) (antibody, human IgG1, kappa)
heavy 1: not shown
heavy 2: not shown
light: B1 light
notes: as for B2

What was measured:
[1] = target: T1, FcγRIIb extracellular domain with …; assay: SPR (Biacore), relative to GpH7-A5/GpH7-B3/GpL16-k0 = 100
[2] = target: T3, FcγRIIIa extracellular domain with C-terminal His tag (human, UniProt P08637 17-208); assay: as above
T3 construct: extracellular domain; also called 3a; FcgRIIIa; not shown: His tag at the C terminus
T3 sequence (P08637 17-208): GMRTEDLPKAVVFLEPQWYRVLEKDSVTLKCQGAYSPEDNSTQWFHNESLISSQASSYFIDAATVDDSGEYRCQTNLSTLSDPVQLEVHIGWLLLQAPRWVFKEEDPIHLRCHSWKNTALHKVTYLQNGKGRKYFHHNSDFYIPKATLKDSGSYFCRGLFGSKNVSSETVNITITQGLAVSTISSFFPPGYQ

[3] = target: T3, FcγRIIIa extracellular domain with …; assay: SPR (Biacore); ratio of He/Con_3a (FcγRIIIa) to He/Con_2b (FcγRIIb)
[4] = target: T4, FcγRIIIa extracellular domain with C-terminal His tag (human, UniProt P08637 17-208); assay: SPR (Biacore), antibody captured on antigen peptide chip, FcγR as analyte; relative binding
T4 construct: extracellular domain; also called FcgRIIIa; 3a; not shown: His tag attached to the C terminus
Procedure: (§1) The heterodimerized antibodies He Abs in which one of the H chains was introduced with an alteration were assayed for their binding activities to each activating FcγR and inhibitory FcγR according to the method described in Example 4. […] The activating FcγRs in FIGS. 26, 27, 28, and 29 are FcγRIa, FcγRIIa (R), FcγRIIa (H), and FcγRIIIa, respectively.
(§2) Analysis of interaction between objective antibody and the FcγR was carried out using Biacore T100 (GE Healthcare). HBS-EP+ (GE Healthcare) was used as the running buffer, and the measurement temperature was set to 25° C. Chips produced by immobilizing the antigen peptide by the amine coupling method to a Series S Sencor Chip CM5 (GE Healthcare), or alternatively, chips produced by allowing preliminarily biotinylated antigen peptides to interact with and immobilize onto a Series S Sensor Chip SA (certified) (GE Healthcare) were used. Antibodies of interest were captured onto an antigen peptide-immobilized chip, and allowed to interact to each FcγR diluted with running buffer. To regenerate and repeatedly use the chip, the antibodies captured on the chip were washed off by reacting 10 mM glycine-HCl, pH 1.5.
T4 sequence (P08637 17-208): as above

[5] = target: T2, FcγRIIb extracellular domain with …; assay: as above
Procedure: as §1, §2

Row | Binder | He/Con_2b [1] | He/Con_3a [2] | He_3a/2b (IIIa/IIb) [3] | He/Con_3a [4] | He/Con_2b [5]
1 | B1 | 149 % (control = 100) | 25.3 % (control = 100) | 0.17 | – | –
2 | B2 | – | – | – | 73.2 % of GpH7-A5/GpH7-B3/GpL16-k0 (=100) | 119 % of GpH7-A5/GpH7-B3/GpL16-k0 (=100)
3 | B3 | 130 % (control = 100) | 31.9 % (control = 100) | 0.25 | – | –
4 | B4 | 193 % (control = 100) | 19.7 % (control = 100) | 0.1 | – | –
5 | B5 | 55.2 % (control = 100) | 17.2 % (control = 100) | 0.31 | – | –
6 | B6 | – | – | – | 54.3 % of GpH7-A5/GpH7-B3/GpL16-k0 (=100) | 80.6 % of GpH7-A5/GpH7-B3/GpL16-k0 (=100)
7 | B7 | 24.6 % (control = 100) | 10.9 % (control = 100) | 0.44 | – | –
8 | B8 | 148 % (control = 100) | 24.9 % (control = 100) | 0.17 | – | –
9 | B9 | 118 % (control = 100) | 79.1 % (control = 100) | 0.67 | – | –
10 | B10 | – | – | – | 49.7 % of GpH7-A5/GpH7-B3/GpL16-k0 (=100) | 80.8 % of GpH7-A5/GpH7-B3/GpL16-k0 (=100)
11 | B11 | – | – | – | 68.3 % of GpH7-A5/GpH7-B3/GpL16-k0 (=100) | 193 % of GpH7-A5/GpH7-B3/GpL16-k0 (=100)
12 | B12 | 108 % (control = 100) | 43.3 % (control = 100) | 0.4 | – | –
13 | B13 | 76.9 % (control = 100) | 59.1 % (control = 100) | 0.77 | – | –
14 | B14 | 56 % (control = 100) | 33 % (control = 100) | 0.59 | – | –
15 | B15 | 149 % (control = 100) | 80.6 % (control = 100) | 0.54 | – | –
16 | B16 | – | – | – | 75.3 % of GpH7-A5/GpH7-B3/GpL16-k0 (=100) | 141 % of GpH7-A5/GpH7-B3/GpL16-k0 (=100)
17 | B17 | – | – | – | 74.1 % of GpH7-A5/GpH7-B3/GpL16-k0 (=100) | 99.8 % of GpH7-A5/GpH7-B3/GpL16-k0 (=100)
